# Assay results: patent US20250277059A1, “ANTIBODY USED TO TREAT CORONAVIRUS INFECTION” (priority 2022, published 2025)
# Target: T1, Human TMPRSS2 expressed on cells (human, UniProt O15393 1-492)
# T1 construct: also called TMPRSS2 expressing cells; Daudi-TMPRSS2 transfectant
# Assay: not given
# Settings: not given
# T1 sequence (O15393 whole entry): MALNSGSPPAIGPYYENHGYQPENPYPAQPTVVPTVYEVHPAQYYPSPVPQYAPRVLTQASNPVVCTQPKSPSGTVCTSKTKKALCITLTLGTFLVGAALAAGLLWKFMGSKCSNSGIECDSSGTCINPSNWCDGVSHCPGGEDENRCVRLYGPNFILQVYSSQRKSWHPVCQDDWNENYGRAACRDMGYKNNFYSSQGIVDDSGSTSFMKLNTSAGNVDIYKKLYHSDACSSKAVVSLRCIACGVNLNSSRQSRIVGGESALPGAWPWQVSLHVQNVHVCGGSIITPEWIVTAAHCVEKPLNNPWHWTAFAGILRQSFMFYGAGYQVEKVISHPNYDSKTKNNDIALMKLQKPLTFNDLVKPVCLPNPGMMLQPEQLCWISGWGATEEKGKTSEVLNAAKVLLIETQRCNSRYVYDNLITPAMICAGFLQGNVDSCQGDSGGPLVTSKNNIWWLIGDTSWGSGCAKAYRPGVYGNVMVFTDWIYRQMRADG
row,Molecule,APC median at 3 µg/ml
1,"752_1 human IgG4 chimeric antibody (antibody, V domains shown) VH: QVQLQQSGAELARPGASVKLSCKASGYTFTSCGISWVKQRTGQGLEWIGEIYPRGGNTYYNEKFKGKATLTADKSSSTAYMELRSLTSEDSAVYFCARENGNYDPLFAYWGQGTLVTVSA VL: DIQMTQSPSSLSASLGGKVTITCKASQDINKYIAWYQHKPGKGPRLLIHYTSTLQPGIPSRFSGSGSGRDYSFSIYNLEPEDIATYYCLQYYNLWTFGGGTKLEIK",2040

# Target: human TMPRSS2 (Homo sapiens, UniProt O15393)
# Sequence (O15393 106-492 limits assumed): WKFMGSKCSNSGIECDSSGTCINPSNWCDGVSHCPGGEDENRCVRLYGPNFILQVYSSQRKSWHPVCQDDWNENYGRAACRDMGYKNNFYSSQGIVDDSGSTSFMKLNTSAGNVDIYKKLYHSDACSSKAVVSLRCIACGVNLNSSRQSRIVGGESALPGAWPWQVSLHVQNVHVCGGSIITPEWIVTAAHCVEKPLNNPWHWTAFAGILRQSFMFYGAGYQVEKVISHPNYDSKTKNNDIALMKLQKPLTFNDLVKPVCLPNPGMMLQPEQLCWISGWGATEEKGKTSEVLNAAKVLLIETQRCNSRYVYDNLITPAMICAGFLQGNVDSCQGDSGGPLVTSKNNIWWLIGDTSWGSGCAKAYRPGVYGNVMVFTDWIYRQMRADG
# Assay: BIACore binding assay of anti-TMPRSS2 antibodies
# Settings: Table 8, recombinant and humanized antibodies
Molecule,ka [M⁻¹ s⁻¹],kd [s⁻¹]
"humanized 752-1 IgG4 (S108P) prototype #1: humanized 752 antibody, 752_hVH-1 (SEQ ID NO: 124) and 752_hVL-1 (SEQ ID NO: 114), human IgG4 (S108P) (antibody, V domains shown, human IgG4 S108P constant region) VH: QVQLVQSGAEVKKPGASVKVSCKASGYTFTSCGISWVRQAPGQGLEWMGEIYPRGGNTYYNEKFKGRVTMTTDTSTSTAYMELRSLRSDDTAVYYCARENGNYDPLFAYWGQGTLVTVSS VL: DIQMTQSPSSLSASVGDRVTITCKASQDINKYIAWYQQKPGKAPKLLIYYTSTLQPGVPSRFSGSGSGTDFTFTISSLQPEDIATYYCLQYYNLWTFGGGTKVEIK",412000,0.009321
"humanized 752-1 IgG4 (S108P) prototype #2: humanized 752 antibody, 752_hVH-1 (SEQ ID NO: 124) and 752_hVL-2 (SEQ ID NO: 119), human IgG4 (S108P) (antibody, V domains shown, human IgG4 S108P constant region) VH: QVQLVQSGAEVKKPGASVKVSCKASGYTFTSCGISWVRQAPGQGLEWMGEIYPRGGNTYYNEKFKGRVTMTTDTSTSTAYMELRSLRSDDTAVYYCARENGNYDPLFAYWGQGTLVTVSS VL: DIQMTQSPSSLSASVGDRVTITCKASQDINKYIAWYQQKPGKAPKLLIHYTSTLQPGVPSRFSGSGSGTDFTFTISSLQPEDIATYYCLQYYNLWTFGGGTKVEIK",1.13e+06,0.01521
"humanized 752-1 IgG4 (S108P) prototype #3: humanized 752 antibody, 752_hVH-2 (SEQ ID NO: 129) and 752_hVL-1 (SEQ ID NO: 114), human IgG4 (S108P) (antibody, V domains shown, human IgG4 S108P constant region) VH: QVQLQQSGTGLARPGASVKLSCKASGYTFTSCGISWVTQRAGQGLEWIGEIYPRGGNTYYNEKFKGKATLTADKSSSSAYMELRGLTAEDSAVYFCARENGNYDPLFAYWGQGTTLTVSS VL: DIQMTQSPSSLSASVGDRVTITCKASQDINKYIAWYQQKPGKAPKLLIYYTSTLQPGVPSRFSGSGSGTDFTFTISSLQPEDIATYYCLQYYNLWTFGGGTKVEIK",2.22e+06,0.004691
"humanized 752-1 IgG4 (S108P) prototype #4: humanized 752 antibody, 752_hVH-2 (SEQ ID NO: 129) and 752_hVL-2 (SEQ ID NO: 119), human IgG4 (S108P) (antibody, V domains shown) VH: QVQLQQSGTGLARPGASVKLSCKASGYTFTSCGISWVTQRAGQGLEWIGEIYPRGGNTYYNEKFKGKATLTADKSSSSAYMELRGLTAEDSAVYFCARENGNYDPLFAYWGQGTTLTVSS VL: DIQMTQSPSSLSASVGDRVTITCKASQDINKYIAWYQQKPGKAPKLLIHYTSTLQPGVPSRFSGSGSGTDFTFTISSLQPEDIATYYCLQYYNLWTFGGGTKVEIK",2.5e+06,0.006114
"humanized 2228-15 IgG4 (S108P) prototype #4: humanized 2228 antibody, 2228_hVH-2 (SEQ ID NO: 149) and 2228_hVL-2 (SEQ ID NO: 139), human IgG4 (S108P) (antibody, V domains shown, human IgG4 S108P constant region) VH: EIQLVQSGAEVKKPGSSVKVSCKASGYTFTDYYINWMRQAPGQGLEWIGWIFPGSGSSYYNAIFKGRATLTVDTSTNTAYMELSSLRSEDTAFYFCARGDFGNFGGFFTYWGQGTLVTVSS VL: DIVMTQSPDSLAVSLGERATINCRASKSVSTSGYSFMHWYQQKPGQPPKLLIYLASNLESGVPDRFSGSGSGTDFTLTIRPLQAEDVAVYYCQHSRELPLTFGQGTKLEIK",1.44e+06,0.0001
"humanized 2228-15 IgG4 (S108P) prototype #1: humanized 2228 antibody, 2228_hVH-1 (SEQ ID NO: 144) and 2228_hVL-1 (SEQ ID NO: 134), human IgG4 (S108P) (antibody, V domains shown, human IgG4 S108P constant region) VH: QVQLVQSGAEVKKPGASVKVSCKASGYTFTDYYINWVRQAPGQGLEWMGWIFPGSGSSYYNAIFKGRVTMTRDTSISTAYMELSRLRSDDTAVYYCARGDFGNFGGFFTYWGQGTLVTVSS VL: DVVMTQSPLSLPVTLGQPASISCRASKSVSTSGYSFMHWFQQRPGQSPRRLIYLASNLESGVPDRFSGSGSGTDFTLKISRVEAEDVGVYYCQHSRELPLTFGGGTKVEIK",5.22e+06,0.0641
"humanized 2228-15 IgG4 (S108P) prototype #2: humanized 2228 antibody, 2228_hVH-1 (SEQ ID NO: 144) and 2228_hVL-2 (SEQ ID NO: 139), human IgG4 (S108P) (antibody, V domains shown, human IgG4 S108P constant region) VH: QVQLVQSGAEVKKPGASVKVSCKASGYTFTDYYINWVRQAPGQGLEWMGWIFPGSGSSYYNAIFKGRVTMTRDTSISTAYMELSRLRSDDTAVYYCARGDFGNFGGFFTYWGQGTLVTVSS VL: DIVMTQSPDSLAVSLGERATINCRASKSVSTSGYSFMHWYQQKPGQPPKLLIYLASNLESGVPDRFSGSGSGTDFTLTIRPLQAEDVAVYYCQHSRELPLTFGQGTKLEIK",731000,0.001039
"humanized 2228-15 IgG4 (S108P) prototype #3: humanized 2228 antibody, 2228_hVH-2 (SEQ ID NO: 149) and 2228_hVL-1 (SEQ ID NO: 134), human IgG4 (S108P) (antibody, V domains shown, human IgG4 S108P constant region) VH: EIQLVQSGAEVKKPGSSVKVSCKASGYTFTDYYINWMRQAPGQGLEWIGWIFPGSGSSYYNAIFKGRATLTVDTSTNTAYMELSSLRSEDTAFYFCARGDFGNFGGFFTYWGQGTLVTVSS VL: DVVMTQSPLSLPVTLGQPASISCRASKSVSTSGYSFMHWFQQRPGQSPRRLIYLASNLESGVPDRFSGSGSGTDFTLKISRVEAEDVGVYYCQHSRELPLTFGGGTKVEIK",825000,0.000774

# Target: T2, Human TMPRSS2 recombinant protein, extracellular region (N-terminal His tag, C-terminal Strep-tag II) (human, UniProt O15393 106-492)
# T2 construct: also called Human TMPRSS2 recombinant proteins; extracellular region of human TMPRSS2
# T2 sequence (O15393 other isoform, or with tags, fused parts or gaps limits assumed): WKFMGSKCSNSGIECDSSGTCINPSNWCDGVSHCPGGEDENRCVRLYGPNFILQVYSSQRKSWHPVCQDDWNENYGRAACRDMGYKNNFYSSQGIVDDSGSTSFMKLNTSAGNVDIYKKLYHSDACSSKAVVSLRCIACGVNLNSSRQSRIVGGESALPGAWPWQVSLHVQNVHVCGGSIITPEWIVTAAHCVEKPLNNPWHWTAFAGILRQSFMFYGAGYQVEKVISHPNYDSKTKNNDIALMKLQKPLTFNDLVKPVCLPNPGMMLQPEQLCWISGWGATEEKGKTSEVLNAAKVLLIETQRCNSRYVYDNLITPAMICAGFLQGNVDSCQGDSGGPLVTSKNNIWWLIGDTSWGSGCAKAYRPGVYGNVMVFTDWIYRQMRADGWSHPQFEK
# Assay: SPR (BIACore)
# Settings: not given
row,Molecule,Kd [nM]
1,"recombinant 2228-15 mIgG (antibody, V domains shown) VH: QVQLQQSGPELVKPGTSVKISCKASGYTFTDYYINWVKQRPGQGLEWIGWIFPGSGSSYYNAIFKGKATLTVDTSSNTAHMSLSSLTSDDSAVYFCARGDFGNFGGFFTYWGQGTLVTVSA VL: DVVVTQSPASLAVSLGQRATISCRASKSVSTSGYSFMHWYQQKPGQPPKLLIYLASNLESGVPARFSGSGSGTDFILNIHPVEEEDAATYYCQHSRELPLTFGAGTKLELK",3.72
